Data on one substance can be found in publication PMC4441819.

The experiment has as its target CH67 Fab, critical dipeptide VD changed to MD (human). Put plainly: BLI. For orientation: Biolayer interferometry detects binding as a change in optical thickness at a sensor tip.

A word on the Kd: it is the concentration at which binding is half-saturated. A low value points to a tighter complex. The term koff denotes a measure of how fast the partners let go of each other. One may read the kon as a measure of how fast the partners come together. Substance “HA A/Solomon Islands/03/2006 globular head (from UniProt A7Y8I1) (domain or fragment)” gave a Kd of 8.5 µM, a koff of 0.00478 s⁻¹ and a kon of 56200 M⁻¹ s⁻¹.
